Results on 7 molecules are retold here after US20250188161A1.

Holding throughout (test): flow cytometry, HEK-293T cells co-transfected with mGarp and the HA-tagged TGF-β1 construct
For orientation: A flow cytometer gives signals particle by particle.

Assay [1] deals with HA-tagged mouse-human-mouse chimeric TGF-β1, mouse LAP residues 87-135 replaced by the corresponding human LAP segment, on HEK-293T cells co-transfected with GARP (mouse; human) (UniProt P04202).
Assay [2] addresses HA-tagged mouse-human-mouse chimeric TGF-β1, mouse LAP residues 201-222 replaced by the corresponding human LAP segment, on HEK-293T cells co-transfected with GARP (mouse; human) (UniProt P04202).
In assay [3] the target is HA-tagged mouse-human-mouse chimeric TGF-β1, mouse LAP residues 223-278 replaced by the corresponding human LAP segment, on HEK-293T cells co-transfected with GARP (mouse; human) (UniProt P04202).
Assay [4] addresses HA-tagged mouse-human-mouse chimeric TGF-β1, mouse LAP residues 136-200 replaced by the corresponding human LAP segment, on HEK-293T cells co-transfected with GARP (mouse; human) (UniProt P04202).

B1: LHT-15 (13E7) (antibody, V domains shown)
VH: EVQLVESGGDLVQPGGSLRLSCAASGFTFSSYWMDWVRQAPGKGLEWVSRITNSGGTAFYTDSVEGRFTISRDNAKNTLYLQMNSLKSEDTAVYYCLRYITRAQLMGAWDYWGQGTQVTVSS
VL: ATMLTQSPGSLSVVPGESASISCKASQSLVHTDGKTYLSWLLQKPGQRPQLLIYQVSNRASGVPDRFTGSGSGTDFTLKISGVKAEDAGVYYCAQSTYYPYDFGSGTRLEIR
In assay [1], B1 yielded a % binding relative to WT TGF-β1 (100 %) of 101%.

B2: LHT-18 (14E7) (antibody, V domains shown)
VH: QVQLVESGGGLVQPGGSLRLSCAASGFTFSHYWMYWVRQAPGKGLEWVSAINTGGGITYYTDSVKGRFTVSRDNAKNTLYLQMNSLKSEDTAVYYCAKSRYGVVITTTYFGGVDYWGKGTLVTVSS
VL: SSALTQPSAVSVSLGQTARITCQGGNFGSYYASWYQQKPGQAPVQVIYGNSNRPSGIPERFSGSSSGDTATLTISGAQAEDEADYYCLSYESSGYAVFGGGTHLTVL
For B2, the % binding relative to WT TGF-β1 (100 %) in assay [2] worked out at 63%.

B3: LHT-22 (15A2) (antibody, V domains shown)
VH: ELQLVESGGGLVQPGGSLRLSCAASGFTFDDYTMNWVRQAPGKGLEWVSAIRWNGVTTYYAESMKGRFTVSRDNGNNTLYLQMNSLKAEDTAVYYCAKGGSIDLTYGMDYWGKGTLVTVSS
VL: QAVVTQEPSLSVSPGGTVTITCGLSSGSVTRNNYPDWYQQTPGQAPRLLLYNTVARHSGVPSRFSGSISGNKAALTITGAQPEDEAGYYCALYMYTGSNNGRVFGGGTLLTVL
The molecule B3 registered a % binding relative to WT TGF-β1 (100 %) in assay [2] of 89%.

B4: LMT-2 (6D12) (antibody, V domains shown)
VH: EVQLVESGGGLVQPGGSLRLSCAASGFTFSNYGVHWVRQAPGKGLEWVSHISAAGISRYYADAVKGRFTMSRDNGKNTLYLQMNGLKSEDTAVYYCAKDRIRSSYEYDSWGQGTQVTVSS
VL: LPVLTQLSSMSGSPGQTVTITCTGSSSNIGGGYYLSWYQQLPGTAPKLLIYNANNRASGVPNRFSGSKSGNLASLTITGLQAEDEADYYCGCYDSSLSTGYVFGGGTKLTVL
Take B4: the % binding relative to WT TGF-β1 (100 %) in assay [1] stood at 157%; in assay [2], 2%; in assay [3], 115%; in assay [4] it was 155%.

B5: LMT-9 (20G3) (antibody, V domains shown)
VH: LQLVESGGGLVQPGGSLRLSCAASGFTFSRSGMAWVRQAPGKGLEWVSAITPGGTATYYANSVKGRVTMSRDNAKNTLYLQMNSLKSEDTAVYYCAKGLVSSGLNGMDYWGKGTLVTVSS
VL: QSVLTQLSSMSGSPGQTVTITCTGSSSNIGGGYYLSWYQQLPGTAPKLLIYNTNNRASGVPNRFSGSKTGSLASLTITGLQAEDEADYYCGCYDDSLNTYVFGGGTKLTVL
As to B5, the % binding relative to WT TGF-β1 (100 %) in assay [1] was 164%; in assay [2], 2%; in assay [3], 126%; in assay [4], 108%.

B6: LMT-12 (14D7) (antibody, V domains shown)
VH: EVQLVESGGGLVQPGGSLRLSCAASGFTFSSYYMYWVRQAPGKGLEWVSGTSIGGGSTWYADSVKGRFTISRDNAKNTLYLQMNNLKSEDTAVYYCAKDLNSRSYKGMGDWGQGTQVTVSS
VL: QPALTQLSSMSGSPGQTVTITCTGSSSNIGGGYYLNWYQQLPGAAPKLVIYNANNRASGVPDRFSGSKSGNLASLTITGLQAEDEAVYFCGCYDSSLSSVVFGGGTHLTVL
As to B6, the % binding relative to WT TGF-β1 (100 %) in assay [1] came out at 99%; in assay [2] it was 3%; in assay [3] it was 89%; in assay [4] it was 105%.

B7: LMT-10 (20G4) (antibody, V domains shown)
VH: QVQLVESGGGLVQPGGSLTLSCAASGFTFSNYYMTWVRQAPGKGLEWVSSIYSTGSHTYYADSVKGRFTISRDNAKDTLYLQMNDLKSEDTAVYYCAKNIYTYYTAHYAGMDYWGKGTLVTVSS
VL: QSALTQPSTVSVSLGQMARITCQGGSLGSYDAHWYQQKPGQAPVLVIHDDNSRPSGIPERFSGSRSGGTATLTISGAQADDEGVYFCHSYDSSANAPVFGGGTELTVL
With B7, the % binding relative to WT TGF-β1 (100 %) in assay [1] stood at 158%; in assay [2] it was 126%; in assay [3] it was 99%.
